Read-outs that look alike come from different tables or passages of the source.
Legend:
[1] = molecular target: activated platelet integrin αIIbβ3 (human (endogenous in platelets)) (UniProt P08514)
[2] = molecular target: activated platelet integrin αIIbβ3 (human (endogenous in platelets)) (UniProt P08514); remark: listed apart in the source
[3] = molecular target: contortrostatin (CN), native (Agkistrodon contortrix contortrix); test: fluorescence polarisation
[4] = molecular target: vicrostatin (VCN) (Agkistrodon contortrix contortrix (southern copperhead venom gland cDNA library) | not stated); test: fluorescence polarisation
[5] = molecular target: contortrostatin (CN), native (Agkistrodon contortrix contortrix); test: fluorescence polarisation; differing concentrations of purified soluble integrin with a constant amount of FITC-labelled CN or VCN, in solution, steady state; Scatchard analysis and non-linear curve fit
[6] = molecular target: vicrostatin (VCN) (Agkistrodon contortrix contortrix (southern copperhead venom gland cDNA library) | not stated); test: as above

UniProt P08514, sequence (P08514 32-1039, chain 1 of 2): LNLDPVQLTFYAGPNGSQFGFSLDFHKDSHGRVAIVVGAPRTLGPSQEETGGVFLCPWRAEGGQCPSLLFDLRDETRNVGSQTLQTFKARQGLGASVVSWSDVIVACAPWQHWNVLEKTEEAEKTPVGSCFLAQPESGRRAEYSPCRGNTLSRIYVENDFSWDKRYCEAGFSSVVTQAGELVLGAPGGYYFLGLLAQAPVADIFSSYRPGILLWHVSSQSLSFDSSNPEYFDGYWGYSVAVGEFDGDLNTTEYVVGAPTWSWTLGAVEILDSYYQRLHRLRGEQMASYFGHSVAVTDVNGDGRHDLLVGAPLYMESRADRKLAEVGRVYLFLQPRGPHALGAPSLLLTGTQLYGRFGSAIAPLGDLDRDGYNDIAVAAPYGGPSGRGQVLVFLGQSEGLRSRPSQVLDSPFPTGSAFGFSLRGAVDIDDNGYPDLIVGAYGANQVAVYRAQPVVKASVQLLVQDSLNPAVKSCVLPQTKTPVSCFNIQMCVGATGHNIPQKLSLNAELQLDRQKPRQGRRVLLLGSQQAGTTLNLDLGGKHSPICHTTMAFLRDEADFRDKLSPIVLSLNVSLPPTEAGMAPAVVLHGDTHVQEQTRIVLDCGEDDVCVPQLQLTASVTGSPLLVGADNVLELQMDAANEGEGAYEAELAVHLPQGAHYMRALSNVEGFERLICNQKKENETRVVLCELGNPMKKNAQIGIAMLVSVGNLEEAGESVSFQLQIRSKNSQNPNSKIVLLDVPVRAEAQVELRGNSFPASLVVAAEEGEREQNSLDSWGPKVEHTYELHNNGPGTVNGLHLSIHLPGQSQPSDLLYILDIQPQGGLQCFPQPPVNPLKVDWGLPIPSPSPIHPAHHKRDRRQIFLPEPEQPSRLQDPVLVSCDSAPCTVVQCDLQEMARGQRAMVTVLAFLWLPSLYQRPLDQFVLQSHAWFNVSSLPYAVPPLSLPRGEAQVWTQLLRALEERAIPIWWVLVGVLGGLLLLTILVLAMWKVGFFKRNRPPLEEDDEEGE
UniProt P08514, sequence (P05106 27-788, chain 2 of 2, further chain): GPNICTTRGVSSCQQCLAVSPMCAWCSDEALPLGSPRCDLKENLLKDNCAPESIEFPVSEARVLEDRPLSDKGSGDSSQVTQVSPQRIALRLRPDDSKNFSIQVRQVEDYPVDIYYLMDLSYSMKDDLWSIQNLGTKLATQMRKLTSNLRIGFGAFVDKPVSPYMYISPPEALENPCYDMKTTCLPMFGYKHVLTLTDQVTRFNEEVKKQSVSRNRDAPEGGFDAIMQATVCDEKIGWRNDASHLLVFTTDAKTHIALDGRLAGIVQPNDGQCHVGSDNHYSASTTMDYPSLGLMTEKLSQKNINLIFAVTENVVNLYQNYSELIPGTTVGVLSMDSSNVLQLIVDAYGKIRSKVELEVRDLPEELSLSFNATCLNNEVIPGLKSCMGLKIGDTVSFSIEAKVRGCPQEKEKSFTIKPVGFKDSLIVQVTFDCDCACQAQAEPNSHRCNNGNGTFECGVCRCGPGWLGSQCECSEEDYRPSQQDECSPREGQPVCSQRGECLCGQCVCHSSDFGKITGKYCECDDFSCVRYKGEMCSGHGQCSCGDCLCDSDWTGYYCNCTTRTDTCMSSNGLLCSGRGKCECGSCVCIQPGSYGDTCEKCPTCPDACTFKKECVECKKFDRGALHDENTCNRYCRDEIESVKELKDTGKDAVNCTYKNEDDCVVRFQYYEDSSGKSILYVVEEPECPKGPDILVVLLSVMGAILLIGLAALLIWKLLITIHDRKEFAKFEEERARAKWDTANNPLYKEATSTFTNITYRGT

Substance	Kd [3] [µM]	Kd [4] [µM]	other results
vicrostatin (VCN) (ligand)			IC50 of inhibition of ADP-induced platelet aggregation in human platelet-rich plasma (blocks fibrinogen binding to αIIbβ3) [1]: 0.06 µM
contortrostatin (CN), native (natural protein)			IC50 of inhibition of ADP-induced platelet aggregation in human platelet-rich plasma (blocks fibrinogen binding to αIIbβ3) [2]: 0.06 µM
purified soluble integrin αvβ5 (from UniProt P06756 31-1048; P18084 24-719) (receptor)	0.0195	0.0412	
soluble recombinant integrin α5β1 (from UniProt P08648 42-1049; P05556 21-728) (receptor)	0.191	0.0152	
purified soluble integrin αvβ3 (from UniProt P06756 31-1048; P05106 27-718) (receptor)			Kd [5]: 0.0066 µM; Kd [6]: 0.0074 µM

Source: publication PMC2880590
